A word on the Kd: it is a measure of binding affinity in units of concentration. High values mean a looser complex, low ones a tighter complex.

Our source for the Kd values is paper PMC3481545.

The target in this assay is Activin (UniProt P08476). Kind of assay: SPR.

B1: human recombinant BMPR-II ECD, wild type (domain or fragment)
chain: ASQNQERLCAFKDPYQQDLGIGESRISHENGTILCSKGSTCYGLWEKSKGDINLVKQGCWSHIGDPQECHYEECVVTTTPPSIQNGTYRFCCCSTDLCNVNFTENFPPPDTTPLSPPHSFNRDET
Turning to B1, the Kd came to 26 µM.

B2: BMPR-II ECD Y40G (domain or fragment)
chain: ASQNQERLCAFKDPGQQDLGIGESRISHENGTILCSKGSTCYGLWEKSKGDINLVKQGCWSHIGDPQECHYEECVVTTTPPSIQNGTYRFCCCSTDLCNVNFTENFPPPDTTPLSPPHSFNRDET
B2 gave a Kd of 54 µM.

B3: BMPR-II ECD Y40P (domain or fragment)
chain: ASQNQERLCAFKDPPQQDLGIGESRISHENGTILCSKGSTCYGLWEKSKGDINLVKQGCWSHIGDPQECHYEECVVTTTPPSIQNGTYRFCCCSTDLCNVNFTENFPPPDTTPLSPPHSFNRDET
With B3, the Kd turned out to be 70 µM.

B4: BMPR-II ECD G47N (domain or fragment)
chain: ASQNQERLCAFKDPYQQDLGINESRISHENGTILCSKGSTCYGLWEKSKGDINLVKQGCWSHIGDPQECHYEECVVTTTPPSIQNGTYRFCCCSTDLCNVNFTENFPPPDTTPLSPPHSFNRDET
B4 returned a Kd of 30 µM. This Kd is about 2.3-fold lower than that of the molecule before.

B5: BMPR-II ECD Y40R (domain or fragment)
chain: ASQNQERLCAFKDPRQQDLGIGESRISHENGTILCSKGSTCYGLWEKSKGDINLVKQGCWSHIGDPQECHYEECVVTTTPPSIQNGTYRFCCCSTDLCNVNFTENFPPPDTTPLSPPHSFNRDET
Regarding B5, the Kd was 46 µM.

B6: BMPR-II ECD S107P (domain or fragment)
chain: ASQNQERLCAFKDPYQQDLGIGESRISHENGTILCSKGSTCYGLWEKSKGDINLVKQGCWSHIGDPQECHYEECVVTTTPPPIQNGTYRFCCCSTDLCNVNFTENFPPPDTTPLSPPHSFNRDET
B6 registered a Kd of 23 µM.

B7: BMPR-II ECD Y40Q (domain or fragment)
chain: ASQNQERLCAFKDPQQQDLGIGESRISHENGTILCSKGSTCYGLWEKSKGDINLVKQGCWSHIGDPQECHYEECVVTTTPPSIQNGTYRFCCCSTDLCNVNFTENFPPPDTTPLSPPHSFNRDET
B7 yielded a Kd of 35 µM.
